# Measurements taken from paper PMC8827053 (RSC Chemical Biology, 2021).
# Columns and labels:
# Assay type in all cases: cell-based
# SH-SY5Y cells [1] = experiment: Membrane toxicity immunocytochemistry; conditions: Aβ42 10 μM, 3 h, pH 7.4, OC antibody, confocal
# SH-SY5Y cells [2] = experiment: Neuronal rescue from Aβ42-induced toxicity; conditions: Aβ42 10 μM preincubated 48 h pH 7.4, 24 h treatment, Alamar blue
# SH-SY5Y cells [3] = experiment: Live/dead assay; conditions: Aβ42 10 μM, 24 h, calcein-AM/propidium iodide, ImageJ analysis
substance,measurement,setting,value
"Aβ42: Amyloid beta 42 peptide, the most toxic form of Aβ (PDB: 1Z0Q)","Total area covered by red fluorescence-labelled Aβ aggregates, Aβ42 alone",SH-SY5Y cells [1],12.3%
same,Cell viability with Aβ42 alone,SH-SY5Y cells [2],~64%
same,"Dead cells, Aβ42 alone",SH-SY5Y cells [3],~36%
